# Data: paper PMC1888833 (Nucleic Acids Research, 2007)
# What was measured:
# HpDnaBDelN3 = HpDnaBDelN3 (Helicobacter pylori, UniProt O25916); conditions: labelled compound; pH 7.5, 4 °C, UV 254 nm
# HpDnaBWt = HpDnaBWt (Helicobacter pylori, UniProt O25916); conditions: labelled compound; pH 7.5, 4 °C, UV 254 nm
# SEC = molecular target: the molecule itself; assay: SEC
Molecule,"UV cross-linking, SDS-PAGE, phosphorimager (HpDnaBDelN3)","UV cross-linking, SDS-PAGE, phosphorimager (HpDnaBWt)",stoichiometry N (SEC)
Nc1ncnc2c1ncn2[C@@H]1O[C@H](COP(=O)(O)OP(=O)(O)OP(=O)(O)O)[C@@H](O)[C@H]1O [∝-32PATP],"Wild-type, DelN2 and DelN3 showed ATP binding","Wild-type, DelN2 and DelN3 showed ATP binding",–
"Helicobacter pylori DnaB helicase, wild-type, full-length (enzyme, Helicobacter pylori (strain 26695), UniProt O25916 1-488, looked up) MDHLKHLQQLQNIERIVLSGIVLANHKIEEVHSVLEPSDFYYPPNGLFFEIALKLHEEDCPIDENFIRQKMPKDKQIKEEDLVAIFAASPIDNIEAYVEEIKNASIKRKLFGLANTIREQALESAQKSSDILGAVEREVYALLNGSTIEGFRNIKEVLESAMDLITENQRKGSLEVTGIPTGFVQLDNYTSGFNKGSLVIIGARPSMGKTSLMMNMVLSALNDDRGVAVFSLEMSAEQLALRALSDLTSINMHDLESGRLDDDQWENLAKCFDHLSQKKLFFYDKSYVRIEQIRLQLRKLKSQHKELGIAFIDYLQLMSGSKATKERHEQIAEISRELKTLARELEIPIIALVQLNRSLENRDDKRPILSDIKDSGGIEQDADIVLFLYRGYIYQMRAEDNKIDKLKKEGKIEEAQELYLKVNEERRIHKQNGSIEEAEIIVAKNRNGATGTVYTRFNAPFTRYEDMPIDSHLEEGQETKVDYDIVTT",–,–,6
"HpDnaBMut (ATP binding site mutant, R204 to C in the WALKER A domain) (enzyme, Helicobacter pylori (strain 26695), UniProt O25916 1-488, looked up) MDHLKHLQQLQNIERIVLSGIVLANHKIEEVHSVLEPSDFYYPPNGLFFEIALKLHEEDCPIDENFIRQKMPKDKQIKEEDLVAIFAASPIDNIEAYVEEIKNASIKRKLFGLANTIREQALESAQKSSDILGAVEREVYALLNGSTIEGFRNIKEVLESAMDLITENQRKGSLEVTGIPTGFVQLDNYTSGFNKGSLVIIGACPSMGKTSLMMNMVLSALNDDRGVAVFSLEMSAEQLALRALSDLTSINMHDLESGRLDDDQWENLAKCFDHLSQKKLFFYDKSYVRIEQIRLQLRKLKSQHKELGIAFIDYLQLMSGSKATKERHEQIAEISRELKTLARELEIPIIALVQLNRSLENRDDKRPILSDIKDSGGIEQDADIVLFLYRGYIYQMRAEDNKIDKLKKEGKIEEAQELYLKVNEERRIHKQNGSIEEAEIIVAKNRNGATGTVYTRFNAPFTRYEDMPIDSHLEEGQETKVDYDIVTT",–,–,6
"HpDnaBDelN2 (N-terminal deletion mutant N2 of HpDnaB, lacking 133 N-terminal residues) (domain or fragment) AVEREVYALLNGSTIEGFRNIKEVLESAMDLITENQRKGSLEVTGIPTGFVQLDNYTSGFNKGSLVIIGARPSMGKTSLMMNMVLSALNDDRGVAVFSLEMSAEQLALRALSDLTSINMHDLESGRLDDDQWENLAKCFDHLSQKKLFFYDKSYVRIEQIRLQLRKLKSQHKELGIAFIDYLQLMSGSKATKERHEQIAEISRELKTLARELEIPIIALVQLNRSLENRDDKRPILSDIKDSGGIEQDADIVLFLYRGYIYQMRAEDNKIDKLKKEGKIEEAQELYLKVNEERRIHKQNGSIEEAEIIVAKNRNGATGTVYTRFNAPFTRYEDMPIDSHLEEGQETKVDYDIVTT",–,–,6
"HpDnaBDelN3 (N-terminal deletion mutant N3 of HpDnaB, lacking 174 N-terminal residues) (domain or fragment) EVTGIPTGFVQLDNYTSGFNKGSLVIIGARPSMGKTSLMMNMVLSALNDDRGVAVFSLEMSAEQLALRALSDLTSINMHDLESGRLDDDQWENLAKCFDHLSQKKLFFYDKSYVRIEQIRLQLRKLKSQHKELGIAFIDYLQLMSGSKATKERHEQIAEISRELKTLARELEIPIIALVQLNRSLENRDDKRPILSDIKDSGGIEQDADIVLFLYRGYIYQMRAEDNKIDKLKKEGKIEEAQELYLKVNEERRIHKQNGSIEEAEIIVAKNRNGATGTVYTRFNAPFTRYEDMPIDSHLEEGQETKVDYDIVTT",–,–,2
